Substitutions are numbered along the chain they refer to. In names and notes the source's numbering stands.
B1: 2H10 IgG2 VH M93V/VL C33S (antibody, V domains shown)
VH: QVQLVESGGGVVQPGRSLRLSCAASGFTFSRHGMHWVRQAPGKGLEWVAVVWFDGSNIYYADSVKGRFTISRDNSKNTLYLQMNSLRAEDTAVYYCARDSRIAAADYWGQGTLVTVSS
VL: SYELTQPPSVSVSPGQTVSITCSGDKLGDKYVSWYQQKPGQSPVLVIYQESKRPSGIPERFSGSSSGNTATLTISGTQAMDEADYYCQTWDSSLVVFGGGTKLTVL
notes: IgG2
B2: 2H10 IgG2 VH wt/VL C33A (antibody, V domains shown)
VH: B1 VH with V93M
VL: B1 VL with S33A
notes: IgG2
B3: 2H10 IgG2 VH M93V/VL wt (antibody, V domains shown)
VH: B1 VH
VL: B1 VL with S33C
notes: IgG2
B4: 2H10 IgG2 VH wt/VL C33G (antibody, V domains shown)
VH: B1 VH with V93M
VL: B1 VL with S33G
notes: IgG2
B5: 2H10 IgG2 VH wt/VL C33D (antibody, V domains shown)
VH: B1 VH with V93M
VL: B1 VL with S33D
notes: IgG2
B6: 2H10 IgG2 VH wt/VL C33R (antibody, V domains shown)
VH: B1 VH with V93M
VL: B1 VL with S33R
notes: IgG2
B7: 9G8 IgG2 VH wt/VL C33A (antibody, V domains shown)
VH: QLQLQESGPGLVKPSETLSLSCTVSGGSISSSSSYWGLIRQPPGKGLEWIGSIYYSGSTYYSPSLKSRVSISVDTSKNQFSLKLSSVTAADTAVYFCARQGYGGHPDVFDIWGQGTMVTVSS
VL: SSELTQSPSVSVSPGQTARITCSGDKLGDVYVAWYQQKTGQSPVLVIYEDTKRPSGIPERFSGSNSGNTATLTISGTQVMDEADYYCQAWDSTTAVIFGGGTKLTVL
notes: IgG2
B8: 9G8 IgG2 VH wt/VL C33R (antibody, V domains shown)
VH: B7 VH
VL: B7 VL with A33R
notes: IgG2
B9: 9G8 IgG2 VH wt/VL C33G (antibody, V domains shown)
VH: B7 VH
VL: B7 VL with A33G
notes: IgG2
B10: 9G8 IgG2 VH wt/VL C33D (antibody, V domains shown)
VH: B7 VH
VL: B7 VL with A33D
notes: IgG2
B11: 9G8 IgG2 VH wt/VL C33Y (antibody, V domains shown)
VH: B7 VH
VL: B7 VL with A33Y
notes: IgG2

Each binder was assayed against T1, full length human DLL4 (human, UniProt Q9NR61 27-685) (assay: FACS competition vs Notch1/Fc, HEK293 cells with human DLL4).
T1 construct: whole, on cells; also called native DLL4 expressed in HEK293 cells
Method: Further experiments were performed on selected antibodies using HEK293 cells that were stably transfected with either human, mouse or cynomolgus monkey DLL4 using retroviral constructs. In these experiments, anti-DLL4 antibodies (final concentration: 10-0.01 μg/ml) diluted in PBS containing 2% FCS were added to DLL4-expressing HEK 293 cells (50000 cells/well diluted in PBS containing 2% FCS) and incubated for 1 h at 4° C. Subsequently, Alexa-647 labeled human, rat or APC labeled mouse Notch1/Fc (e.g. R&D Systems, catalog #3647-TK-050, 1057-TK-050, 5267-TK-050, respectively) was added at a final concentration of 0.01-0.5 μg/ml and plates were incubated for a further 2 h at 4° C. prior to washing and reading on a FACSCalibur instrument.
The activity of the mutated antibodies was assessed in two ways: firstly, the ability of the antibodies to block the binding of soluble Notch1/Fc to full length human DLL4 stably expressed in HEK293 cells as described in Example 3 was determined and, secondly, the binding of the antibodies to the same cell line used in the receptor-ligand competition studies was determined. For the binding studies, HEK293 cells stably overexpressing human DLL4 were resuspended in PBS containing 2% FCS at a concentration of 50,000 cells/well and incubated with titrations of antibody (final concentrations 0.01-10 μg/ml) for 1 h at 4° C. The cells were then washed and incubated with 0.31 μg/ml anti-human IgG-Fc-FITC (BD Pharmingen, cat#555786) for 30 minutes at 4° C. Bound […] was detected using FACS analysis. Results of these studies are summarized in Table 23, which show the effects of specific mutations to sequences of 9G8 and 2H10 on the ability of the antibodies to compete with Notch1 for binding to human DLL4 or to bind to human DLL4 relative to unmutated antibodies.

T1 sequence (Q9NR61 27-685): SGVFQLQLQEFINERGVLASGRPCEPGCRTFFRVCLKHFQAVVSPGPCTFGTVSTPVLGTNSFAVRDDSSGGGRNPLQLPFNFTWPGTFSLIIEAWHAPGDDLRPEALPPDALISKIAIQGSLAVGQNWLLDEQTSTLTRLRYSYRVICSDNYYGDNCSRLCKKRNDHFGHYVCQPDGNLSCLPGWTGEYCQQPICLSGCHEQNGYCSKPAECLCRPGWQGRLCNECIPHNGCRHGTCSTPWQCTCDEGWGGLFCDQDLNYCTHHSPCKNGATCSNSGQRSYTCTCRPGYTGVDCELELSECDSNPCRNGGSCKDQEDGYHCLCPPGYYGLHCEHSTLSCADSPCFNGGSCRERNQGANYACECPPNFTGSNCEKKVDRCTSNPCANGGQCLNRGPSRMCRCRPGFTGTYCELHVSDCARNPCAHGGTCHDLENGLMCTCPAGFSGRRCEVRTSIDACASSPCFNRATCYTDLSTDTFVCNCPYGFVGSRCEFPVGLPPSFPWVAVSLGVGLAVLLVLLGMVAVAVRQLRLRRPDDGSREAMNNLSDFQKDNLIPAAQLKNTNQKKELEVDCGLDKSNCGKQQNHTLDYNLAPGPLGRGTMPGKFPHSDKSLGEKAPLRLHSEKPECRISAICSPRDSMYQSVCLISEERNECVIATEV

| IC50 [µg/mL] | Binder |
| --- | --- |
| 0.138 | B1 |
| 0.174 | B2 |
| 0.264 | B3 |
| 0.314 | B4 |
| 0.178 | B5 |
| 2.97 | B6 |
| 0.302 | B7 |
| 0.201 | B8 |
| 0.358 | B9 |
| 0.345 | B10 |
| 0.32 | B11 |

— US20100196385A1 (AstraZeneca / MedImmune, published 2010)
